Columns and labels:
[1] = molecular target: T1, human KIR3DL2 (CD158k), wild type, at the cell surface (human, UniProt P43630 22-455); assay: flow cytometry on live HUT78 cells, 2 h at 37°C in RPMI10%, detection with anti-human-Fc PE, median of fluorescence
T1 construct: also called WTaKIR3DL2; un-mutated wild type KIR3DL2
Experimental: (§1) This study aimed to evaluate the impact of staining conditions on 2B12 labelling of KIR3DL2-expressing cells, gated on total cells, at 4° C. or 37° C., and with incubation times of 2 hours, 4 hours or 24 hours. Briefly, 100,000 HUT78 cells per well were incubated with a dose range of 2B12 antibody starting from 0.0005 μg/ml to 30 μg/ml (serial dilution 1/3 in complete medium). The protocol used was as follows: incubation 2H; 4H and overnight at 4° C. and 37°; staining in RPMI 10% with or without PFA fixation; 2 washes in SB (150 μl/w); addition of anti-human-Fc PE for 30 min at 4° C.; 2 washes in SB (100 μl/w); and detection using FACS CANTO II.

[2] = molecular target: T1, human KIR3DL2 (CD158k), wild type, at …; assay: panel Free KIR3DL2 - 2B12-PE: flow cytometry on HUT78 cells after 24 h at 37°C with unlabelled 2B12; loss of free KIR3DL2 detected with 2B12-PE at 10 µg/ml, the concentration axis is in µg/ml
Experimental: (§2) This study aimed to evaluate the dynamics of KIR3DL2 receptor expression by observing the amount of total, free and 2B12-bound KIR3DL2 after different periods of incubation with antibody 2B12. Briefly, HUT78 cells (50,000 cells/well) were incubated for 1h, 24h or 48h at 37° C. in complete medium with 2B12 (human IgG1), dose range starting from 10 μg/ml (decreasing), 1/3 serial dilution, 11 concentrations, or with isotype control (IC), dose range starting (decreasing) from 10 μg/ml, 1/3 serial dilution, 11 concentrations. Dose ranges were made in triplicate in order to perform 3 staining conditions: [0323] Bound KIR3DL2 (30 min at 4° C.): GaH IgG Fc-PE, [0324] Free KIR3DL2+total KIR3DL2 (1h at 4° C.): 2B12-PE (10 μg/ml)+mAb2-APC (non-competing anti-KIR3DL2) (10 μg/ml), [0325] Total KIR3DL2 (1h+30 min at 4° C.): 2B12 (10 μg/ml)+GaH IgG Fc-PE.

[3] = molecular target: T1, human KIR3DL2 (CD158k), wild type, at …; assay: panel Free KIR3DL2 - 2B12-PE: flow cytometry on HUT78 cells after 48 h at 37°C with unlabelled 2B12; loss of free KIR3DL2 detected with 2B12-PE at 10 µg/ml, the concentration axis is in µg/ml
Experimental: as §2

[4] = molecular target: T1, human KIR3DL2 (CD158k), wild type, at …; assay: cell-based or functional assay
[5] = molecular target: T1, human KIR3DL2 (CD158k), wild type, at …; assay: flow cytometry on live HUT78 cells, 24 h at 37°C in RPMI10%, detection with anti-human-Fc PE, median of fluorescence
Experimental: as §1

[6] = molecular target: T1, human KIR3DL2 (CD158k), wild type, at …; assay: flow cytometry on live HUT78 cells, 24 h at 4°C in RPMI10%, detection with anti-human-Fc PE, median of fluorescence
Experimental: as §1

[7] = molecular target: T1, human KIR3DL2 (CD158k), wild type, at …; assay: flow cytometry on HUT78 cells after 20 h at 37°C; bound antibody detected with goat anti-human IgG Fc-PE (MdFI GaH-PE); the box prints no unit, the concentration axis is in µg/ml
Experimental: (§3) This study aimed to evaluate the impact of a 20 hour incubation with antibody 2B12 on cell surface KIR3DL2 level by observing the amount of bound 2B12 (human IgG1), free (non-antibody bound) cell surface KIR3DL2 polypeptide, and total cell surface KIR3DL2 polypeptide. Briefly, HUT78 (100,000 cells/well) were incubated for 20h at 37° C. with a dose range of 2B12 antibody starting from (decreasing) 8.88 μg/ml, 1/3 serial dilution, 11 concentrations. Dose ranges were made in duplicate in order to perform the following 2 staining conditions: [0317] Total KIR3DL2+bound KIR3DL2 (GaH IgG Fc-PE+mAb2-APC (a non-competing anti-KIR3LD2 mAb) (10 μg/ml) [0318] Free KIR3DL2: 2B12-PE (10 μg/ml).
(§4) Staining was performed at 4° C. in staining buffer for 1h and analyzed with a FACS Canto 11 HTS. The dark line/squares represents antibody 2B12 while the light line/circles represents isotype control. It can be seen that free KIR3DL2 receptors can be detected when incubating cells with 10 μg/ml of 2B12-PE and detecting free receptors with non-competing anti-KIR3DL2 antibody. It can be seen that 2B12-bound KIR3DL2 receptors can be detected by incubating cells with goat anti-human IgG Fc-PE secondary Ab. Both read-outs were correlated, with similar EC₅₀. […]

[8] = molecular target: T1, human KIR3DL2 (CD158k), wild type, at …; assay: panel Free KIR3DL2 - 2B12-PE: flow cytometry on HUT78 cells after 1 h at 37°C with unlabelled 2B12; loss of free KIR3DL2 detected with 2B12-PE at 10 µg/ml, the concentration axis is in µg/ml
Experimental: as §2

[9] = molecular target: T1, human KIR3DL2 (CD158k), wild type, at …; assay: flow cytometry on HUT78 cells after 20 h at 37°C with unlabelled antibody; loss of free KIR3DL2 detected with PE-labelled 2B12 (IPH4102-PE on the sheet) at 10 µg/ml; the box prints no unit, the concentration axis is in µg/ml
Experimental: as §3, §4

[10] = molecular target: T1, human KIR3DL2 (CD158k), wild type, at …; assay: flow cytometry on live HUT78 cells, 4 h at 37°C in RPMI10%, detection with anti-human-Fc PE, median of fluorescence
Experimental: as §1

[11] = molecular target: T1, human KIR3DL2 (CD158k), wild type, at …; assay: panel Bound KIR3DL2 - GaH-PE: flow cytometry on HUT78 cells after 24 h at 37°C with 2B12; bound antibody detected with goat anti-human IgG Fc-PE, the concentration axis is in µg/ml
Experimental: as §2

[12] = molecular target: T1, human KIR3DL2 (CD158k), wild type, at …; assay: cell-based or functional assay; remark: listed apart in the source
[13] = molecular target: T1, human KIR3DL2 (CD158k), wild type, at …; assay: panel Bound KIR3DL2 - GaH-PE: flow cytometry on HUT78 cells after 48 h at 37°C with 2B12; bound antibody detected with goat anti-human IgG Fc-PE, the concentration axis is in µg/ml
Experimental: as §2

[14] = molecular target: T2, KIR3DL1 (CD158e1) (UniProt P43629 22-444, limits assumed); assay: hybridoma screening (flow cytometry, incl. HEK-293T/KIR3DL1 Domain 0-eGFP)
T2 construct: also called closely related KIR3DL1
T2 sequence (P43629 22-444 limits assumed): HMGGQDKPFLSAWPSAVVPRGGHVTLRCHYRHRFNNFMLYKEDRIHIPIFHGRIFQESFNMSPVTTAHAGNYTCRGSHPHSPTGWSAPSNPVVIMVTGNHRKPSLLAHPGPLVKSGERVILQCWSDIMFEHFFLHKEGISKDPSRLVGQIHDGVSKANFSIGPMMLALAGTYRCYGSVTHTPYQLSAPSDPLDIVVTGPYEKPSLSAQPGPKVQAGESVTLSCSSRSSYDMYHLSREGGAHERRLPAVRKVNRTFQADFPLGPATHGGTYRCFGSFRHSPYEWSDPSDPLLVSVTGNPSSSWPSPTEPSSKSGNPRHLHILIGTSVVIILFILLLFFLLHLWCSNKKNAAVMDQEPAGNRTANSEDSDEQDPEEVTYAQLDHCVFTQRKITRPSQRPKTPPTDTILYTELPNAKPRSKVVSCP
Experimental: Antibodies which bind KIR3DL2 but not closely related KIR3DL1 were generated by immunizing mice with recombinant KIR3DL2-Fc fusion protein, described in US patent publication number US-2015-0232556-A1. Supernatant (SN) of the growing hybridomas were tested by flow cytometry on Sezary Syndrome cell lines (HUT78, COU-L) and HEK-293T/KIR3DL2 Domain 0-eGFP. Potentially interesting hybridomas selected from the initial screening were cloned by limiting dilution techniques in 96-wells plates. The secondary screen involved selection of hybridomas of interest by testing supernatants of the subclones by flow cytometry on HUT78, COU-L, HEK-293T/KIR3DL1 Domain 0-eGFP and HEK-293T/KIR3DL2 Domain 0-eGFP. Positive subclones were injected into mice to produce ascitis and antibodies of interest were purified before being tested in a Biacore assay using rec KIR3DL2 chips, followed by various assays formats based on binding to human KIR3DL2-expressing cells.

[15] = molecular target: KIR3DL2 mutant having P14S, S15A and H23S substitutions (human, UniProt P43630 22-455); assay: binding to a series of KIR3DL2 mutants
Sequence of KIR3DL2 mutant having P14S, S15A and H23S substitutions (P43630 other isoform, or with tags, fused parts or gaps P14S S15A H23S P14S S15A H23S): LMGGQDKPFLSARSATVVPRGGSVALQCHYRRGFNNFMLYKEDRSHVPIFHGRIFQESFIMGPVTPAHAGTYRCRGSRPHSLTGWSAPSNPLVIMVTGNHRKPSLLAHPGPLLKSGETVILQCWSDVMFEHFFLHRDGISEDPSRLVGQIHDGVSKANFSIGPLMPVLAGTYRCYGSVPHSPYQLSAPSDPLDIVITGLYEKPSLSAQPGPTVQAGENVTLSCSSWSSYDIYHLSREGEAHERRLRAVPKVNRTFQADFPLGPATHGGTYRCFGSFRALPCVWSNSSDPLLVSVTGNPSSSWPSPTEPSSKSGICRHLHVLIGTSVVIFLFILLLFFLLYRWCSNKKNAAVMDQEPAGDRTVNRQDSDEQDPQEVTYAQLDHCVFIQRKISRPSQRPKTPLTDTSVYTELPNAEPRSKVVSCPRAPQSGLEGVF

[16] = molecular target: KIR3DL2 mutant having I60N and G62S substitutions (human, UniProt P43630 22-455); assay: binding to a series of KIR3DL2 mutants
Sequence of KIR3DL2 mutant having I60N and G62S substitutions (P43630 other isoform, or with tags, fused parts or gaps I60N G62S I60N G62S): as the sequence (P43630 other isoform, or with tags, fused parts or gaps P14S S15A H23S P14S S15A H23S) above, with S14P, A15S, S23H, I60N, G62S counted along it

T1 sequence (P43630 22-455 E158D): as the sequence (P43630 other isoform, or with tags, fused parts or gaps P14S S15A H23S P14S S15A H23S) above, with S14P, A15S, S23H counted along it

Row | Binder | EC50 (read off the curve) [1] [µg/mL] | EC50 [2] [µg/mL] | EC50 [3] [µg/mL] | EC50 of the increase of total cell-surface KIR3DL2 on HUT78 cells after 20 h at 37°C, detected with mAb2-APC (axis: MdFI 13E4-APC) [4] [µg/mL] | EC50 (read off the curve) [5] [µg/mL] | EC50 (read off the curve) [6] [µg/mL] | EC50 [7] [µg/mL] | EC50 [8] [µg/mL] | EC50 [9] [µg/mL] | EC50 (read off the curve) [10] [µg/mL] | EC50 [11] [µg/mL] | EC50 of the increase of total cell-surface KIR3DL2 on HUT78 cells after 24 h at 37°C, panel Total KIR3DL2 - 2B12+GaH-PE [12] [µg/mL] | EC50 of the increase of total cell-surface KIR3DL2 on HUT78 cells after 24 h at 37°C, panel Total KIR3DL2 - mAb2-APC [12] [µg/mL] | EC50 of the increase of total cell-surface KIR3DL2 on HUT78 cells after 48 h at 37°C, panel Total KIR3DL2 - 2B12+GaH-PE [12] [µg/mL] | EC50 of the increase of total cell-surface KIR3DL2 on HUT78 cells after 48 h at 37°C, panel Total KIR3DL2 - mAb2-APC [12] [µg/mL] | EC50 [13] [µg/mL] | binding result [14] | binding result [15] | binding result [16]
1 | antibody 2B12 (human IgG1) (antibody, V domains shown, Used as human IgG1 in the HUT78 staining studies (Parts 1-3); also called 2B12-PE) VH: QIQLVQSGPELKKPGETVRISCKASGYTFTTAGMQWVQKTPGKGLKWIGWINSHSGVPKYAEDFKGRFAFSLETSASTAYLQISTLKNEDTATYFCARGGDEGVMDYWGQGTSVTVS VL: DIVMTQSHKFMSTSLGDRVSFTCKASQDVSTAVAWYQQKPGQSPKLLIYWTSTRHTGVPDRFTGSGSGTDYTLTISSVQAEDLALYYCQQHYSTPWTFGGGTKLEIK | ~0.1 | 0.0438 | 0.0178 | 0.0789 | ~0.07 | ~0.04 | 0.059 | 0.104 | 0.0588 | ~0.09 | 0.0566 | 0.103 | 0.0599 | 0.0454 | 0.042 | 0.0163 | – | – | –
2 | antibody 2B12 (parental, as generated in Example 1) (antibody, V domains shown, From mouse hybridoma; It was detected with goat anti-mouse antibody in the internalization assay) VH: QIQLVQSGPELKKPGETVRISCKASGYTFTTAGMQWVQKTPGKGLKWIGWINSHSGVPKYAEDFKGRFAFSLETSASTAYLQISTLKNEDTATYFCARGGDEGVMDYWGQGTSVTVS VL: DIVMTQSHKFMSTSLGDRVSFTCKASQDVSTAVAWYQQKPGQSPKLLIYWTSTRHTGVPDRFTGSGSGTDYTLTISSVQAEDLALYYCQQHYSTPWTFGGGTKLEIK | – | – | – | – | – | – | – | – | – | – | – | – | – | – | – | – | no binding | binds | no binding

Reference: patent US20210087270A1 (INNATE PHARMA, published 2021)
